Assay: yeast display, Sf9 membrane polyspecificity reagent, FACS + sequencing; frameworks hold sequencing errors
Method in brief: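 A nanobody's polyreactivity label depends on the gate it was sorted from. Yeast display cells were stained with 10% biotinylated, detergent-solubilized Sf9 membrane reagent for 1 hour at 4 °C, enriched on streptavidin microbeads and sorted by FACS. The low and high (top ~1%) gates were set on anti-HA fluorescence for expression and streptavidin fluorescence for reagent binding.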

| Sequence | polyreactivity (PSR sort gate) |
| --- | --- |
| QVQLVESGGGLVQAGGSLRLSCAASGGTFPRYAMGWYRQAPGKERELVAAISRSGGSTYYADSVKGRFTISRDNAKNTVYLQMNSLKPEDTAVYYCATGYSYIMDYWGQGTQVTVSS | high polyreactivity |
| QVQLVESGGGLVQAGGSLRLSCAASGGTFPYNAMGWYRQAPGKERELVAVITSGDGTYYADSVKGRFTISRDNAKNTVYLQMNSLKPEDTAVYYCAADYVVWFSFVYVVEYDYWGQGTQVTVSS | low polyreactivity |
| QVQLVESGGGLVQAGGSLRLSCAASGGTFQRYAMGWYRQAPGKERELVAAISSGGRTYYADSVKGRFTISRDNAKNTVYLQMNSLKAVDTAVYYCNAVGWTRYWRIGWSAYYYWGQGTQETVSS | high polyreactivity |
| QVQLVESGGGLVQAGGSLRLSCAASGGTFQSNALGWYRQAPAKERELVASITSRGSSTYYADSVKGRFTISRDNAKNTVYLQMNSLKPEDTAVYYCAKGRSWQIYYKGGIKGGYWGQGTQVTVSS | low polyreactivity |
| QVQLVESGGGLVQAGGSLRLSCAASGGTFQSNAMGWYRQAPGKERELVASITSRGSSTYYADSVKGRFTISRDNAKNTFYLLMNSLKPEDTAVYYCAKGSSWQIYYKGGIKGGYWGQGTQVTVSS | low polyreactivity |
| QVQLVESGGGLVQAGGSLRLSCAASGGTFRANAMVWYRQAPGKERELVAAISFRGGTTYYADSVKGRFTISRDNAKTTVYLQMNSLKPEDTAVYYCAAGRRGSYYYWGQGTQVTVSS | high polyreactivity |
| QVQLVESGGGLVQAGGSLRLSCAASGGTFRLNAMGWYRQAPGKERELVATITRRGGSTYYADSVKGRFTISRDNAKNTVYLQMNSLKPEDTAVYYCAARDVYRGGLFDYWGQGTQVTVSS | high polyreactivity |
| QVQLVESGGGLVQAGGSLRLSCAASGGTFRVYAMGWYRQAPGKERELVAAISGGGRTYADSVKGRFTISRDNAKITVYLQMNSLKPEDTAVYYCNTRRYYRVTTVKRYDYWGQGTQVTVSS | high polyreactivity |
| QVQLVESGGGLVQAGGSLRLSCAASGGTFRVYVMGLYRQATGKERELVAAISRGGGSTYYADSVKGRFTISRDNAKNTVYLQMNSLKPEDTAVYYCAARVWRYPWRASEYDYWGQGTQVTVSS | high polyreactivity |
| QVQLVESGGGLVQAGGSLRLSCAASGGTFSFYAMGWYRQAPGKEREFVAAITASDGSTYYADSVKGRFTSSRDNAKNTVYLQMNSLKPEDTAVYYCAADAYGYKFNSWGQGTQVTVSS | low polyreactivity |
| QVQLVESGGGLVQAGGSLRLSCAASGGTFSGYTMGWYRQAPGKERELVAAINWSGGRTYYADSVKGRFTISRDNAKNTAYLQMNSLKPEDTAVYYSNKYGLYYREYDYWGQGTQVTVSS | high polyreactivity |
| QVQLVESGGGLVQAGGSLRLSCAASGGTFSPYDMGWYRQAPGKERELVASITGSGGSTYYADSVKGRFTISRGNAKNTVYLQMNSLKPEETAVYYCAAQGYWTYWPYLLRLYDYWGQGTQVTVSS | low polyreactivity |
| QVQLVESGGGLVQAGGSLRLSCAASGGTFSTNAMGWYRQAPGKERELVAAISLSGGRTYADSVKGRFTISRDNAKNTVYLQMNSLKPEDTAVYYCNADSAGITRARSELDYWGQGTQVTVSS | low polyreactivity |
| QVQLVESGGGLVQAGGSLRLSCAASGGTFSWYAMGWYRQAPGKERELVAAITARGGSTYYADSVKGRFTISRDNAKNTVYLQMNSLKPEDTAVYYCNKRTRSLVRYNSGGYSVGYWGQCTQVTVSS | high polyreactivity |
| QVQLVESGGGLVQAGGSLRLSCAASGGTFSYNAMGWYRQAPGKERELVAAISWSGTRTYYADSVKGRFTISRDNAKNTVYLQMNSLKPEDTAVYYCNKPPPNRGRYDYWGQGTQVTVSS | low polyreactivity |
| QVQLVESGGGLVQAGGSLRLSCAASGGTFTHYGMGWYRQAPGKERELVAAITWTASSTYYADSVKGRFTISRDNAKNTVYLQMNSLKPEDTAVYYCATSYYYWGHTYDYWGQGTQVTVSS | low polyreactivity |

| Sequence | polyreactivity (PSR sort gate) |
| --- | --- |
| QVQLVESGGGLVQAGGSLRLSCAASGGTFTIYAMGWYRQAPGKERELVATINRGDRTNYADSVKGRFTISRDNAKNTVYLQMNSLKPEDTAVYYCAADFYYWYRGVYFVTRNYYWGQGTQVTVSS | high polyreactivity |
| QVQLVESGGGLVQAGGSLRLSCAASGGTFVRYVMGWYRPAPGKERELVAAISGSGGSTYYADTVKGRFTISRDNAKNTVYLQMNSLKPEASAVYYCASVYYWSKFYYWGQGTQVTVSS | high polyreactivity |
| QVQLVESGGGLVQAGGSLRLSCAASGGTFVSNAMGWYRHAPGKERELVAAITTGGTTYADSVKGRFTISRDNAKNSVYLQMKSLKPEDSAVYYCAADIYLLILGRSILQFDYWGQGTQVTVSS | low polyreactivity |
| QVQLVESGGGLVQAGGSLRLSCAASGGTFVSYVMGWYRQAPGKEREWVAAISVSGGRTYYADSVKGRFTISRDNAKNTVYLQMNSLKPEDTAVYYCAADSVVVGSPGNDYWGQGTQVTVSS | high polyreactivity |
| QVQLVESGGGLVQAGGSLRLSCAASGGTFVYSAMGWYRQAPGKERELVAAINWSGGSTYYADSVKGRFTISRDNAKNTVYLQMNILKAEDTAVLLLQRSGLRRSGVWFDYWGQGTQVTVSS | low polyreactivity |
| QVQLVESGGGLVQAGGSLRLSCAASGGTFVYYAMGWYRQAPGKERELVAAITSRGTSTYYADSVKGRFTISRDNAKNTVYLQMNSLKPEDTAVYYCAAGTPRGILRNSSYNYWGQGTQVTVSS | high polyreactivity |
| QVQLVESGGGLVQAGGSLRLSCAASGGTFVYYTMGWYRQAPGKERELVAAISGRGGRTYYADSVKGRFTISRDNAKNTVYLQMNSLKPEDTAVYYCTATQIGPYYLPFDSWGQGTQVTVSS | high polyreactivity |
| QVQLVESGGGLVQAGGSLRLSCAASGGTFWLYAMGWYRQAPGKEREFVAAISYSGGSTYYADSVKGRFTISRDHAKNTVYLQMNSLKPEDTAVYYCAASAYYLDYDYWGQGTQVTVSS | high polyreactivity |
| QVQLVESGGGLVQAGGSLRLSCAASGGTFWVNMGWYRQAPGKEREFVAAITWSAGSTYYADSVKGRFTISRDNAKNTVYLQMNSLKPEDTAVYYCAGGGGHYQEYLMEDYWGQGTQVTVSS | high polyreactivity |
| QVQLVESGGGLVQAGGSLRLSCAASGGTFWYYAMGWYRQAPGKEREFVAAISSRGGNTYYADSVKGRFTISRDNAKNTVYLQMNSLKPEDTAVYYCNAKTHRRYSENYYWGQGTQVTVSS | high polyreactivity |
| QVQLVESGGGLVQAGGSLRLSCAASGGTFYFYAMGWYRQAPGKERELVATITRGGSTYYADSVKGRFTISRDNAKNTVYLQMNSLKPEDTAVYYCAARQYSRRRSPVSTWYYYWGQGTQVTVSS | high polyreactivity |
| QVQLVESGGGLVQAGGSLRLSCAASGGTFYINTMGWNRQAPGKERELVATITIVVSTKYADSVKGRFTISRDNAKNTVYLQMNSLNPEDTAVYYCAKDDVYRDSFLVFDGEMVYWGQGTQVTVSS | low polyreactivity |
| QVQLVESGGGLVQAGGSLRLSCAASGGTFYPYAMGWYRQAPGKERELVAAISRGGGSTSYADSVKGRFTISRDNAQNTVYLQMNSLKPEDTAVYYSNAYTYYHANHEQGFGYWGQGTQVTVSS | low polyreactivity |
| QVQLVESGGGLVQAGGSLRLSCAASGGTFYRYAMGWYRQAPGKEMELVAAISSRGGSTYYADSVKGRFTISRDNAKNTVYLQMNSLKPEDTAVYYCAALFYLTPWQYDYWGQGTQVTVSS | high polyreactivity |
| QVQLVESGGGLVQAGGSLRLSCAASGGTFYRYAMGWYRQAPGNERELVAAISSSGGRTYYADSVKGRFTISRDNAKNTVYVQMNSLKPEDTAVYYCNARYPRLHRTYNYWGQGTQVTVSS | high polyreactivity |

From the nanobody polyreactivity screen of Harvey et al. (2022)
